Results taken from article doi:10.1101/2022.02.24.481826v2.

Legend:
[1] = test system: O=P(O)(O)OP(=O)(O)OP(=O)(O)OC[C@H]1O[C@@H](n2cnc3c(O)ncnc32)[C@H](O)[C@@H]1O; assay: EnzChek pyrophosphate release assay, Michaelis-Menten fit; format: biochemical, Arabidopsis thaliana; conditions: ITP to IMP
[2] = test system: O=c1[nH]cnc2c1ncn2[C@H]1C[C@H](O)[C@@H](COP(=O)(O)OP(=O)(O)OP(=O)(O)O)O1; assay: as above; format: biochemical, Arabidopsis thaliana; conditions: dITP to dIMP

Substance: ITPA (Arabidopsis thaliana)
- Km [1]: 7.1 ± 1.2 µM
- kcat [1]: 1.9 ± 0.25 s⁻¹
- Km [2]: 1.7 ± 0.3 µM
- kcat [2]: 1.5 ± 0.17 s⁻¹
